B1: AADHta: eutE type AADH of Tolumonas auensis DSM 9187, GenBank ACQ93307.1 (protein)
chain: MNNTELESLIRTILTEQLTPSATDTPACTASSVALFDDVDSAICAAHAAFLRYQEAPLKTRSAIIAAIRAEIAPCLSELAERAAAETGMGNTADKILKNKAALENTPGIEDLKTTALTGDEGMVLFEYSPFGVVGAVAPSTNPTETIINNSISMLAAGNAIYFSPHPGAKNISLWLIQKMEEIAFKVCGIHNLIVTVKEPTFEATQQMMAHDKIALLAITGGPGIVNMGLKSGKKVIGAGAGNPPCLVDETAEIVKAAQDIVAGASFDYNLPCIAEKSVIAVDCIADQLIQQMREFGAMQITDPQQIAQLREVCIQKGAANKSLVGKSPATILAAAGIPCPAKEPRLIILEVPANDPFVVTEQLMPVLPIVRVDNFEQGLQLALKVEDGLHHTAMMHSQNVSRLNKAAHLMQTSIFVKNGPSYAGIGVGAEGFTTFTIATPTGEGTTSARTFGRLRRCVLTNGFSIR
modifications: AADHta
B2: AADHtl: eutE type AADH of Thauera linaloolentis DSM 12138, GenBank ENO90114.1 (protein)
chain: MVDIDLKNVEQIVRTVLASMQTQPQAVQPAAGRRAAPGVFTELDDAVAEASTAQRAIRNLATRVKVVEAIRKAAEAHARELAELAVAETGMGRVEDKFAKNVSQARHTPGVECLAPTALTGDRGLTLIENAAWGVIASVTPSTNPAATIINNAISMISAGNTVVFAPHPAAKKVSQRTVSLLNEASVAAGGPDNVVTTVLNPDIATAQRLFSYPGIHLLTVTGGEAVVEAARKHTDKRLIAAGAGNPPVVVDETADLARAARDIVWGASFDNNIICVDEKEIIVVDRVCDALKTEMARHKAVELTPDQGKRLVDVLLNYVGADGRGTVSRDWVGRDAAKIAAAIGLEVPADTRLLYIETPADHPFAVTELMMPVIPVVRAPDVDAAIDLAVKLEGNCRHTAAMHSRNIDALDRMANAINTSIFVKNGPCLAGLGFGGEGWTTMTISTPTGEGVTSARTFVRLRRCVLVDHFRIV
modifications: AADHtl
B3: AADHhs: eutE type AADH of Halanaerobium saccharolyticum DSM 6643, GenBank CCU77919.1 (protein)
chain: MKIKENELDKIVNQVISSLNNKQNSNDFNTKINYGIFSTMDEAIAEAVKAQACLQLNYSTEAREKIIKSIRKNVSKHVEKISEMAVEETDMGRIEDKIIKNNLAINKTPGTEDLRTEAFSGKKGLTIVEEAPFGVICSIAPVTNPTETIISNAISMIASCNGVVFNSHPGAKKVSKYIIEVLNKVIMEAGGPENLLTAVNEPTLQTVESCMRDDRIAMIVATGGPGVVNAALSSGKKAIGAGAGNPPVLVDDTVDLKRVAKDIINGASFDNNLPCTSEKAIVALESIADSLLNEMTNQNAQLVHDIKALERVILNDDGSINKALVGKDAAFILNKAGLKAKSEDLRLVIVDVDLRHPFVQKEQLMPVIPLVRAKNFNEAMEMGVDIEEGNRHTAIIHSKNVDNLTKFAKKIETTIYVKNAPSYAGIGAGGEGYATFTIAGPTGEGLTSARSFTRKRRCVLVDGFSII
modifications: AADHhs
B4: AADHbs: eutE type AADH of Blautia sp. CAG: 237, GenBank CDB76812.1 (protein)
chain: MDEIMIKNIVREVLMKTNLDISCKSDQGVFEDVNDAIDAAYIAQRDWYMNYKVEDRRRIIEAIRVVARENAPMFAKMIHEETGMGRYEDKITKNLAVIDKTPGVECLVTDAISGDSGLMIEEQAPFGVIGAITPSTNPTETIINNTISMIGGGNAVVFNVHPGAKKVCAVCLQILHKTIVENGGPANLITMQRKPDMEAVNKLTASPKIRLMVGTGGMGMVNALLKSGKKTIGAGAGNPPVVVDDTADLDKAASEIYRGASFDNNLLCLAEKETFVMDNVADELIRKMCACGAHLITPQETEQLLKVIFLEKDGKYSVNKKWVGKDASLILESIGIKDADTRLVLCEVPHDHPFVLVEQLMPIMPIVRCKTFEDCVKYAVVAENGNRHTASMFSKNVDHMTRFAKEIETTIFTKNAATLVGVGIGGEGHTTMTIAGPTGEGLTCARSFTRRRRCMLADGGLRVI
modifications: AADHbs
B5: EUTEec: eutE type AADH of Escherichia coli HS, GenBank YP_001459232.1 (protein)
chain: MNQQDIEQVVKAVLLKMQSSDTPPAAVHEMGVFASLDDAVAAAKVAQQGLKSVAMRQLAIAAIREAGEKHARDLAELAVSETGMGRVEDKFAKNVAQARGTPGVECLSPQVLTGDNGLTLIENAPWGVVASVTPSTNPAATLINNAISLIAAGNSVIFAPHPAAKKVSQRAITLLNQAIVAAGGPENLLVTVANPDIETAQRLFKFPGIGLLVVTGGEAVVEAARKHTNKRLIAAGAGNPPVVVDETADLARAAQSIVKGASFDNNIICADEKVLIVVDSVADELMRLMEGQHAVKLTAEQAQQLQPVLLKNIDERGKGTVSRDWVGRDAAKIAAAIGLNVPQETRLLFVETTAEHPFAVTELMMPVLPVVRVANVADAIALAVKLEGGCHHTAAMHSRNIENMNQMANAIDTSIFVKNGPCIAGLGLGGEGWTTMTITTPTGEGVTSARTFVRLRRCVLVDAFRIV
modifications: EUTEec
B6: AADHbw: eutE type AADH of Bilophila wadsworthia 3_1_6, GenBank EFV45545.1 (protein)
chain: MDVRQQDVERIVVEVLKKMMSDQPTAAATTVVAASGCDCGDFGLFDRLEDAVQAAEAAQKKISTVAMRDKIIAAIRKAGLENAKAFAEIAHNETGMGRVSDKIAKNILVCERTPGTECLSPMAISGDMGLTLIENAPWGVIASVTPSTNPTATVINNAISMIAGGNSVIFAPHPNAKRASQTAIQVLNKAIIEATGVANLLVAVKEPTIEVAQELFSHPRIKLLVVTGGEAVVAQARKVATMRLIAAGAGNPPVVVDETANIARAARSIYDGASFDNNIICADEKEIIAVDSIADQLKAEMKAIGAVEISLEQADAVARVVLRNYPQVEGGKAPNPNPKWVGRDAALIAKAAGIDVPDSCRLLIVDVKRDINHVFARVEQLMPVIPLLRAANVDEAIEWALILERGLSHTAGMHSRNIDNMDKMARAMNTSLFVKNGPHLAALGAGGEGWTTMTISTPTGEGVTCARSFVRLRRCCVVDNFRIV
modifications: AADHbw
B7: AADHmm: eutE type AADH of Morganella morganii SC01, GenBank EMP53767.1 (protein)
chain: MDQKEIENVVKAVLASMSAGTQPAAASAAPQQAAASQNNGFGVFESLDDAVLAAKEAQKSLKTVEMRNLCIGAIRRAATEHARELAVLAVEETGMGRVEDKLAKNLAQANGTPGVECLRPEVLTGDHGLTLIENAAWGVIASVTPSTNPAATAINNAISMIAGGNSVIFAPHPAAKKVSQRTITILNEAIVAAGGPNNLLVTVAKPDIETAQRLFKYPGIGLLVVTGGDAVVESARKHTNKRLIAAGAGNPPVVVDETADIERAAKAIVHGASFDNNIICADEKVLIAVDCIADKLITEMQRNHAVLLTREQSEKLIPVLLKNVDETGHGTVSRDWVGRDAAKIAAAIGMTVPADTRLLIAETDCKHPFAVTELMMPVLPIIRVKDVDQAIDLAVKLEGGCHHTAAMHSNNISNLNRMANAIDTSIFVKNGPCIAGLGLGGEGWTTMTITTPTGEGVTCARTFVRLRRCTMVDSFRIV
modifications: AADHmm
B8: ADHEpm: adhE type AADH of Piromyces sp. E2, GenBank AY282576.1 (protein)
chain: MSGLQMFQNLSLYGSLAEIDTSEKLNEAMDKLTAAQEQFREYNQEQVDKIFKAVALAASQNRVAFAKYAHEETQKGVFEDKVIKNEFAADYIYHKYCNDKTAGIIEYDEANGLMEIAEPVGPVVGIAPVTNPTSTIIYKSLIALKTRNCIIFSPHPGAHKASVFVVKVLHQAAVKAGAPENCIQIIFPKMDLTTELLHHQKTRFIWATGGPGLVHASYTSGKPALGGGPGNAPALIDETCDMNEAVGSIVVSKTFDCGMICATENAVVVVESVYENFVATMKKRGAYFMTPEETKKASNLLFGEGMRLNAKAVGQTAKTLAEMAGFEVPENTVVLCGEASEVKFEEPMAHEKLTTILGIYKAKDFDDGVRLCKELVTFGGKGHTAVLYTNQNNKDRIEKYQNEVPAFHILVDMPSSLGCIGDMYNFRLAPALTITCGTMGGGSSSDNIGPKHLLNIKRVGMRRENMLWFKIPKSVYFKRAILSEALSDLRDTHKRAIIITDRTMTMLGQTDKIIKACEGHGMVCTVYDKVVPDPTIKCIMEGVNEMNVFKPDLAIALGGGSAMDAAKMMRLFYEYPDQDLQDIATRFVDIRKRVVGCPKLGRLIKTLVCIPTTSGTGAEVTPFAVVTSEEGRKYPLVDYELTPDMAIVDPEFAVGMPKRLTSWTGIDALTHAIESYVSIMATDFTRPYSLRAVGLIFESLSLAYNNGKDIEAREKMHNASAIAGMAFANAFLGCCHSVAHQLGSVYHIPHGLANALMLSHIIKYNATDSPVKMGTFPQYKYPQAMRHYAEIAELLLPPTQVVKMTDVDKVQYLIDRVEQLKADVGIPKSIKETGMVTEEDFFNKVDQVAIMAFDDQCTGANPRYPLVSELKQLMIDAWNGVVPKL
modifications: ADHEpm

What follows are molecules tested on S. cerevisiae VSK-128 ACS2 deletion strain (assay: AADH in vivo growth assay, ACS2 deletion strain on glucose-based agar plates). Conditions: not given.
Format: cell-based
Description: All copies of the ACS2 gene were deleted from the industrial S. cerevisiae VSK-128 strain in order to generate a strain with a defective PDH-bypass that was incapable of growth on glucose-based medium. Expression vectors carrying the 25 different AADH variants were then transformed into this ACS2 deletion strain to evaluate their ability to recover the growth of this strain on glucose.
There was a good correlation between the in vitro AADH enzyme activity assays and the in vivo growth recovery analyses.

Molecule	recovery of the growth deficiency of the ACS2-deletion strain
B1	capable of recovering the growth deficiency
B2	capable of recovering the growth deficiency
B3	capable of recovering the growth deficiency
B4	capable of recovering the growth deficiency
B5	capable of recovering the growth deficiency
B6	capable of recovering the growth deficiency
B7	capable of recovering the growth deficiency

These molecules were tested on AADH (assay: AADH in vitro enzyme activity assay from yeast cell lysates). Conditions: CEN.PK lab strain, multicopy plasmid, TEF1 promoter.
Format: biochemical
Method: AADH activity was measured as described by Kozak et al. (2014, Metab. Eng. 21:46-59) by monitoring the reduction of NAD^+ at 340 nm at 30° C. The yeast cells for the cell lysates were collected, washed with water, and then resuspended into lysis buffer containing 100 mM Tris-HCl buffer (pH 7.5) and 1×EDTA free protease inhibitor cocktail (Roche). The cells were lysed with glass beads in a Precellys 24 homogenizer at 5500 rpm for 3×40 seconds and kept on ice between rounds. Lysates were centrifuged at 16 000 g for 20 min at 4° C. and supernatants were collected. The total protein concentration was determined using the Bradford method.
The enzyme assay reaction mixture contained 0.1 mM Coenzyme A, 50 mM CHES buffer (pH 9.5), 0.8 mM NAD^+, 0.2 mM DTT and 10 μL of cell extract in a total reaction volume of 200 μL. The reaction was started by adding 10 mM of freshly prepared acetaldehyde solution and reduction of NAD^+ was followed with a Thermo Konelab 20XT analyser.
Five AADH genes were originally chosen (i.e. ADHEpm, ADHEec, EUTec, EUTdz and LIN1129li) and transformed into the CEN.PK lab strain. These AADHs were expressed from a multicopy plasmid where they were under control of the TEF1 promoter.
Twenty additional novel AADH genes were chosen from the genome mining analyses to be evaluated for expression and enzyme activity in yeast.

Molecule	AADH activity in yeast compared to the adhE-type AADHs
B5	much higher AADH activity

Same assay, conditions: in vitro, expressed in yeast

Molecule	AADH activity
B5	showed AADH activity
B6	shown to have AADH activity
B8	showed AADH activity
B7	shown to have AADH activity
